In patent publication US20200283478A1:

Target: PCSK9Δhelix (human)
Assay: phage spot ELISA

Sequence of PCSK9Δhelix (human) (prodomain, as listed by the source mutant limits assumed, chain 1 of 2): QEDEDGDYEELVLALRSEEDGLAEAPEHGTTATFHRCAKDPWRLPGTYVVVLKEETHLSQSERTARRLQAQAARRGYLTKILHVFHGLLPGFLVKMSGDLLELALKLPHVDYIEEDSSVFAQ
Sequence of PCSK9Δhelix (human) (chain, as listed by the source mutant limits assumed, chain 2 of 2): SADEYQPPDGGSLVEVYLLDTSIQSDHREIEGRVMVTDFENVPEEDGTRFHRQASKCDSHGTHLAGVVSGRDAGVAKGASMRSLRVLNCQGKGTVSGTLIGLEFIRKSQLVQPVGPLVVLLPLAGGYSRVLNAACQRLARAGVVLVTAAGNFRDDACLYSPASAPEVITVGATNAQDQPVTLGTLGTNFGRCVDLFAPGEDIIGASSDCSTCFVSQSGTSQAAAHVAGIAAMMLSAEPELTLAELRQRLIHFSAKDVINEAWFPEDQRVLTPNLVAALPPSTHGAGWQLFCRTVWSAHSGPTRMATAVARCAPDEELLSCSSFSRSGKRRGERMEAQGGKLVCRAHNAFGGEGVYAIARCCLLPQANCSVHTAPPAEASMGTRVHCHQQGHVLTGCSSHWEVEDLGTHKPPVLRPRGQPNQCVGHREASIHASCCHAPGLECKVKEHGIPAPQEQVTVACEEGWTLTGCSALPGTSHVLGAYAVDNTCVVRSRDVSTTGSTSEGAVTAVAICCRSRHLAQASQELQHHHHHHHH

Row | Binder | ELISA | s/n ratio | s/n
1 | TAFTSWEEYLDWVGSGCMEAWQCSLA [SEQ ID NO 337] | 2.76 | 1.49 | –
2 | SGDFIPWNLVRIGLLR [SEQ ID NO 385] | 0.657 | 5.01 | –
3 | SGVCSDHYIGGKEVRC [SEQ ID NO 378] | 1.21 | – | 1.85
